In patent publication US6365372:

Molecular target: Gal-CBP1-2441 chimera (yeast) (UniProt P45481)
Test: cell-based or functional assay

Q: How did the ability of Gal-CBP to activate transcription of pGal-CAT turn out when “SRCAP1275-2971 (from UniProt Q6ZRS2 1534-3230)” was run?
A: 2.5 fold
